Test [1] has as its target T1, human interleukin-3 (IL-3) receptor alpha-chain (CD123), on cells (human, UniProt P26951 19-378).
T1 construct: whole, on cells; also called human CD123
The test is described as follows: flow cytometry (APC-A), unmodified mAb + secondary antibody, RS4;11 cells overexpressing human CD123 [CONT.]. The text has this: FIG. 4. Parental CD123-negative human RS4;11 ALL cells and RS4;11 cells engineered to overexpress human CD123 were used for flow cytometric phenotyping of a series of anti-CD123 mAbs (11F11, 5G4, 10C4, 1H8) that were either left unmodified or were reacted with 5, 10, or 15 equivalents of B10. A secondary mAb-only control is also shown.
(In general: In flow cytometry, cells or beads pass a laser one at a time.)

In test [2] the target is T1, human interleukin-3 (IL-3) receptor …. The test is described as follows: flow cytometry (PE-Cy7-A), mAb + labeled secondary antibody, RS4;11 cells transduced with human CD123.
Test [3] has the same target. The test is described as follows: flow cytometry (PE-A), recombinant human IgG1 mAb + labeled secondary antibody, parental MOLM-13 cells against MOLM-13 CD123KO.
Test [4] addresses T2, Hs_CD123_6His-Avi (CD123 ECD-His-Avi fusion protein) (human, UniProt P26951 19-303).
T2 construct: The signal peptide is marked only by bold type, so its limits cannot be read here and were not guessed; also called His-Avi tagged peptide encompassing the ECD of human CD123
T2 sequence: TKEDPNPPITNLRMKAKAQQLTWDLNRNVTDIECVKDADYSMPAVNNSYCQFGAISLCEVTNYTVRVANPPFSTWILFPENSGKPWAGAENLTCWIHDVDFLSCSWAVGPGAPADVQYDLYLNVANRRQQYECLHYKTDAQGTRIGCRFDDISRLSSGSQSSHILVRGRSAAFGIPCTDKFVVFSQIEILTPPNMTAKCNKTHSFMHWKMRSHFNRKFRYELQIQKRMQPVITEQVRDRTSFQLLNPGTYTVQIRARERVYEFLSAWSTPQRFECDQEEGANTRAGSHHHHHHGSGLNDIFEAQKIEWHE
The test is described as follows: SPR (Biacore T-100), univalent affinity; antibody captured on the CM4 chip, human CD123 ECD as analyte. How it is done: FIGS. 13A-13B. Surface plasmon resonance (Biacore T-100) analyses were performed to rigorously/precisely determine univalent binding affinities of recombinant chimeric and humanized versions of the anti-human CD123 monoclonal antibody 10C4, using (FIG. 13A) human IgG1 and (FIG. 13B) human IgG4 frameworks. For these experiments, a peptide encoding the complete extracellular portion of human CD123 was used, and the antibodies were captured on the biosensor chip (CM4) via a Fc gamma-specific goat anti-human IgG and amine coupling.
(SPR reads the build-up and loss of mass on a sensor chip optically.)

The target in test [5] is T2, Hs_CD123_6His-Avi (CD123 ECD-His-Avi …). The test is described as follows: competition ELISA: plate coated with CD123 ECD-His-Avi, biotinylated 10C4 as competitor, increasing unlabeled antibody, HRP-streptavidin; unit not given, x axis is log(concentration). The text has this:
(§1) FIGS. 15A-15B. Enzyme-linked immunosorbent assay (ELISA) with the original mouse 10C4 antibody and peptide encompassing the entire extracellular domain (ECD) of CD123 was used to test competitive binding of 10C4 compared to recombinant (FIG. 15A) human IgG1 versions and (FIG. 15B) human IgG4 versions of chimeric 10C4 and humanized 10C4 monoclonal antibodies. Plates were coated with CD123 ECD-His-Avi fusion protein and bound to biotinylated 10C4 antibody in the presence or absence of increasing amounts of competing unlabeled antibodies, as detected by HRP-Streptavidin.
Background: An ELISA detects its analyte on a solid surface through an enzyme-linked reagent.

For test [6] the target is unchanged. The test is described as above.
From the text: as §1
The source holds these as a separate data set.

The target of test [7] is T1, human interleukin-3 (IL-3) receptor …. The test is described as follows: flow cytometry (PE-A), 2 µg/mL by the legend (hybridoma supernatants by paragraph 203) + labeled secondary antibody, parental MOLM-13 cells against MOLM-13 CD123KO.
Test [8] addresses T2, Hs_CD123_6His-Avi (CD123 ECD-His-Avi …). The test is described as follows: competition ELISA against biotinylated 10C4 on coated CD123 ECD-His-Avi; percent relative to the 10C4 row of the drawn table.
From the text: as §1

Where a chain is given by its changes, count along the chain named. Read-outs that look alike come from different tables or passages of the source.

B1: 123-1H8 (murine anti-CD123 antibody, IgG1 isotype, Kappa Light Chain) (antibody, V domains shown)
VH: EVKLVESEGGLVQPGSSMKLSCTASGFTFSDYYMAWVRQVPEKGLEWVANIDDEGSSTYYLDSLKSRFIISRDNAKNILYLQMTSLKSEDTATYYCARGTTQTSFFVHWGQGTLVTVSA
VL: DIVLTQSPASLAVSLGQRATISCRASQSVSSSSYSFMHWYQKKPRQPPKLLIKYASTLEAGVPARFSGSGSGTDFTLNIHPVEEEDTATYYCQHSWEIPYTFGGGTKLEIK
notes: murine IgG1, kappa
B1: the binding result in test [1] is “binds”.

B2: 123-13E1 (murine anti-CD123 antibody, IgG2b isotype, Kappa Light Chain) (antibody, V domains shown)
VH: EVQLQQSGPELVKPGASVKISCKASGYTFTDHYMNWVKQSHGERLEWIGDIIPNNGGSTYSQKFKGKATLTVDKSSSTAYMELRSLTSEDSAVYYCARNGYYWYFDVWGTGTTVTVSS
VL: DIVLTQSPSSLAMSVGQKVTMSCKSSQSLLNSSNQKNYLAWYQQKPGQSPKLLVYFASTRESGVPDRFTGSGSGTDFTLTISTVQAEDLAFYYCHQHYSIPRTFGGGTKLEIT
notes: murine IgG2b, kappa
For the molecule B2, the binding result in test [2] is “binds”.

B3: 123-ATX1F2, fully human recombinant antibody, human IgG1 framework (antibody)
heavy: not shown
light: DIQMTQSPSSLSASVGDRVTITCRASQGIRNDLGWYQQRPGKAPKRLIYAASSLQSGVPSRFSGSGSGTEFTLAISSLQPEDFATYSCLQHNSYPWTFGQGTKVEIKRTVAAPSVFIFPPSDEQLKSGTASVVCLLNNFYPREAKVQWKVDNALQSGNSQESVTEQDSKDSTYSLSSTLTLSKADYEKHKVYACEVTHQGLSSPVTKSFNRGEC
notes: also called 1F2 (human IgG1)
For B3, in test [3], the binding result is “binds”.

B4: 123-10C4 (murine anti-CD123 antibody, IgG2b isotype, Kappa Light Chain) (antibody, V domains shown)
VH: QVQLKESGPGLVAPSQNLSITCTVSGFSLTTYDINWIRQPPGKGLEWLGVIWTGGGTNYNSAFMSRLSISKDNSKSQVFLKMNSLQTDDTAMYYCVRGDTYHYALDFWGQGTSVTVSS
VL: DIVMSQSPSSLAVSAGEKVTMSCKSSQSLLSSGTRKNYLAWYQQKPGQSPKLLIYWASTRESGVPDRFTGSGSGTDFTLTISSVQAEDLAVYYCKQSYILFTFGSGTKLEIK
notes: also called parent murine 10C4; murine anti-human CD123 monoclonal antibody 10C4
By Kd is commonly meant the free concentration of one partner at which half of the binding sites on the other are occupied at equilibrium, for simple one-to-one binding. A lower Kd goes with tighter binding. Usually koff stands for the rate constant with which the complex falls apart. Read a high koff as a short-lived complex. As usually defined, the kon is the second-order rate constant of association. Higher therefore signals faster complex formation. In test [4], B4 displayed an equilibrium dissociation constant (Kd) of 0.401 nM, a koff of 0.000102 s⁻¹ and a kon of 254000 M⁻¹ s⁻¹. Besides, in test [5], the “Calculated concentration at 1/2 OD” value is 1.12. For the same molecule, the “Calculated concentration at 1/2 OD” value in test [6] is 1.04.

B5: 123-5C7 (murine anti-CD123 antibody, IgG2b isotype, Kappa Light Chain) (antibody, V domains shown)
VH: DVQLQESGPGLVKPSQSLSLTCSVTGYSITSSYYWNWIRQFPGNKLEWMGYISYDGSNNYNPSLKNRISITRDTSKTQFFLNLNSVTTEDTATYYCARGDGYYFDYWGQGTTLTVSS
VL: DFVMSQSPSSLAVSVGEKITINCKSSQSLFFGSTQKNYLAWYQQKPGQSPKLLIFWSSTRESGVPDRFTGSGSGTDFTLSINSVKAEDLAVYYCQQYYNYPWTFGGGTKLEIK
notes: murine IgG2b, kappa
For the molecule B5, the binding result in test [2] is listed as “binds”.

B6: 123-ATX1F2 (Human anti-CD123 antibody from ATX-GX mouse, Kappa Light Chain) (antibody, V domains shown)
VH: QVQLVQSGAEVKKPGASVKVSCKVSGYTLTEFSMHWVRQAPGKGLEWMGVFDPEHGATIYAQKFQGRVTMTEDTSTDTAYMDLSYLRSEDTAVYYCATYFDFWSGYSHFDFWGQGTLVTVSS
VL: DIQMTQSPSSLSASVGDRVTITCRASQGIRNDLGWYQQRPGKAPKRLIYAASSLQSGVPSRFSGSGSGTEFTLAISSLQPEDFATYSCLQHNSYPWTFGQGTKVEIK
As for B6, the binding result in test [7] was “binds”.

B7: 123-5G4 (murine anti-CD123 antibody, IgG2a isotype, Kappa Light Chain) (antibody, V domains shown)
VH: DVQLQESGPGLVKPSQSLSLTCTVTGYSITSDYVWNWIRQFPGNKLEWMAYISYSGTTSYNPSLSSRISITRDTSSNQFFLQLNSVTSEDTATYYCARGLDYWGQGTSVTVSS
VL: QIVLTQSPAIMSVSLGERVTMTCTASSSVTSSYFHWYQQKPGSSPKLWIYSTSNLASGVPARFSGSGSGTSYSLTISSMEAEDAATYYCHQYHRSPRTFGGGTKLEIK
notes: murine IgG2a, kappa
On to B7, for which the binding result in test [1] is on record as “binds”.

B8: 123-12A10 (murine anti-CD123 antibody, IgG2b isotype, Kappa Light Chain) (antibody, V domains shown)
VH: EVQLQQSGPELVKPGASVKISCKTSGYTFTDYYMNWVKQSHGKSLEWIGDIIPNNGGTSYHQKFKGKATLTVDKSSNTAYMELRSLTSEDSAVYYCARYGSSWFFDVWGTGTTVTVSS
VL: DIVMSQSPSSLAVSVGEKVTMSCKSSQSLLHSSNQKNYLAWYQQKPGQSPKLLIYWASTRESGVPDRFTGSGSGTDFTLTISSVKAEDLAVYYCQQYYSFPRTFGGGTKLEIK
notes: murine IgG2b, kappa
Turning to B8, the binding result in test [2] is on record as “binds”.

B9: 123-ATX1B2 (Human anti-CD123 antibody from ATX-GX mouse, Kappa Light Chain) (antibody, V domains shown)
VH: QVQLVQSGAEVKKPGASVEVSCKASGYTFTGYYIHWVRQAPGQGLEWMGWINPNSGGTNYAQKFQGRVTMTWDTSISTAFMELSRLRSDDTAVYSCARDRGGPYFDYWGQGTLVIVSS
VL: DIQMTQSPSSLSASVGDRVTITCQASQDITNYLNWYQQKPGKAPKLQIYDASNLETGVPSRFSGSGSGTDFTFTISSLQPEDIATYYCQQHDDLPLTFGGGTKVEIK
Regarding B9, in test [7], the binding result is recorded as “binds”.

B10: Chi-10C4, recombinant chimeric 10C4, human IgG4 framework (antibody)
heavy: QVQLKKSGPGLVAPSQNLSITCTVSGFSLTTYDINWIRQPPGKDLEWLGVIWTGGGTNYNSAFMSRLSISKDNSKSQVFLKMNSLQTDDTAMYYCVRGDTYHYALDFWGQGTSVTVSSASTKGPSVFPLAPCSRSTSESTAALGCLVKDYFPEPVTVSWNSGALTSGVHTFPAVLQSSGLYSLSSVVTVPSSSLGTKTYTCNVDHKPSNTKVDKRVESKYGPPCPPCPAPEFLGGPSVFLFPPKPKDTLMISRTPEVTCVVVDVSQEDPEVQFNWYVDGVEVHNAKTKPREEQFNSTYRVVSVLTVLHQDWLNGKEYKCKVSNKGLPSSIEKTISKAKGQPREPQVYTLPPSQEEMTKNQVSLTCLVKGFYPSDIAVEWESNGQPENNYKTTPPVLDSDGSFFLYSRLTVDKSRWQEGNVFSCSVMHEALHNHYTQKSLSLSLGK
light: DIVMSQSPSSLAVSAGEKVTMSCKSSQSLLSSGTRKNYLAWYQQKPGQSPKLLIYWASTRESGVPDRFTGSGSGTDFTLTISSVQAEDLAVYYCKQSYILFTFGSGTKLEIKRTVAAPSVFIFPPSDEQLKSGTASVVCLLNNFYPREAKVQWKVDNALQSGNSQESVTEQDSKDSTYSLSSTLTLSKADYEKHKVYACEVTHQGLSSPVTKSFNRGEC
notes: Signal peptide left out as for the IgG1 form
With B10, in test [8], the Immunoreactivity came out at 116%. In test [4], this molecule returned a Kd of 1.39 nM, an off-rate constant (koff) of 0.00011 s⁻¹ and an on-rate constant (kon) of 79100 M⁻¹ s⁻¹. In addition, in test [6], the “Calculated concentration at 1/2 OD” value was 1.21.

B11: Chi-10C4, recombinant chimeric 10C4, human IgG1 framework (antibody)
heavy: not shown
light: B10 light
With B11, the Immunoreactivity in test [8] came to 100%. In test [4], this molecule yielded a Kd of 0.572 nM, an off-rate constant (koff) of 5.24e-05 s⁻¹ and an on-rate (kon) of 91600 M⁻¹ s⁻¹. The “Calculated concentration at 1/2 OD” value in test [5] is 1.12.

B12: 123-ATX1B7 (Human anti-CD123 antibody from ATX-GX mouse, Kappa Light Chain) (antibody, V domains shown)
VH: QVQLVQSGAEVKKPGASVKVSCKASGYTFTSFGLTWVRQAPGQGLEWMGWFNAYSGKTYYAPTLQDRVTMTTDPSTSTAYMELMSLTSDDTAIYYCARDLVFDYWGQGTLVTVSS
VL: EIVLTQSPGTLSLSPGERATLSCRASQSFSDRYLAWYQQKPGQAPRLLIYGTSSRATGIPDRFSGSGSGTDFTLTISRLESEDSAVYYCQQYGRSPFTFGPGTKVDIK
Take B12: the binding result in test [7] was “binds”.

B13: 123-ATX1E5 (Human anti-CD123 antibody from ATX-GX mouse, Kappa Light Chain) (antibody, V domains shown)
VH: B12 VH with L34I, T35S, K57N, P74T, T87R
VL: B12 VL with S53F, E80D, S84F, R94S
Regarding B13, in test [7], the binding result is “binds”.
